Blank lines part the entries; values can stand above or below the binder they belong to.
Key:
[1] = molecular target: T1, recombinant mouse DLL4 extracellular domain, C-terminally His-tagged (R&D Systems) (mouse, UniProt Q9JI71 27-525); assay: binding ELISA on coated rmDLL4
T1 construct: range 1-525; also called rmDLL4; mDLL4; not shown: C-terminal His tag
Protocol: In order to determine cross-reactivity to mouse DII4 a binding ELISA is performed. […] Wells are blocked with a casein solution (1% in PBS). VHHs are applied as dilution series and binding is detected using a mouse anti-myc (Roche) and an anti-mouse-AP conjugate (Sigma, St Louis, Mo., USA) (FIG. 7).

[2] = molecular target: T2, recombinant human Jagged-1 (Alexis) (human, UniProt P78504 34-1067, limits assumed); assay: rhDLL1/rhJAG1 binding ELISA
T2 construct: also called hJagged-1; hJAG1

[3] = molecular target: T3, recombinant human DLL1 (Alexis) (human, UniProt O00548 18-545, limits assumed); assay: rhDLL1/rhJAG1 binding ELISA
T3 construct: also called hDLL1; rhDLL1
T3 sequence (looked up): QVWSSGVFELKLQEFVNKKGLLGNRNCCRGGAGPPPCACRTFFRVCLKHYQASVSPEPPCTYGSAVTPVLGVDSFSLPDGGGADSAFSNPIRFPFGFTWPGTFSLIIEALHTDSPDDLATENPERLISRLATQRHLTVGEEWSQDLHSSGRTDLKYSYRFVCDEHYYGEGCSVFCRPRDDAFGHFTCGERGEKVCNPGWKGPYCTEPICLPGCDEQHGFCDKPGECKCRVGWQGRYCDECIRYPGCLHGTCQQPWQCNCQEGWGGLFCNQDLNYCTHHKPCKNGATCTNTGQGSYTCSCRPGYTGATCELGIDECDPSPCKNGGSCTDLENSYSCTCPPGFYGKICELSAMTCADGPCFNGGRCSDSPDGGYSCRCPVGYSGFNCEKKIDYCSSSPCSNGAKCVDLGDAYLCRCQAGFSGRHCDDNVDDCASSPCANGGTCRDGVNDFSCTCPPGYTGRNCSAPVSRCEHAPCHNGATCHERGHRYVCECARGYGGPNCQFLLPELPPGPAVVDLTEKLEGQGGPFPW

[4] = molecular target: T4, cynomolgus DLL4, full length, overexpressed on cells (cynomolgus, UniProt Q9NR61 27-685 (human entry)); assay: FACS titration on HEK293-cDLL4 cells
T4 construct: also called CHO-cDLL4; cDLL4
T4 chain: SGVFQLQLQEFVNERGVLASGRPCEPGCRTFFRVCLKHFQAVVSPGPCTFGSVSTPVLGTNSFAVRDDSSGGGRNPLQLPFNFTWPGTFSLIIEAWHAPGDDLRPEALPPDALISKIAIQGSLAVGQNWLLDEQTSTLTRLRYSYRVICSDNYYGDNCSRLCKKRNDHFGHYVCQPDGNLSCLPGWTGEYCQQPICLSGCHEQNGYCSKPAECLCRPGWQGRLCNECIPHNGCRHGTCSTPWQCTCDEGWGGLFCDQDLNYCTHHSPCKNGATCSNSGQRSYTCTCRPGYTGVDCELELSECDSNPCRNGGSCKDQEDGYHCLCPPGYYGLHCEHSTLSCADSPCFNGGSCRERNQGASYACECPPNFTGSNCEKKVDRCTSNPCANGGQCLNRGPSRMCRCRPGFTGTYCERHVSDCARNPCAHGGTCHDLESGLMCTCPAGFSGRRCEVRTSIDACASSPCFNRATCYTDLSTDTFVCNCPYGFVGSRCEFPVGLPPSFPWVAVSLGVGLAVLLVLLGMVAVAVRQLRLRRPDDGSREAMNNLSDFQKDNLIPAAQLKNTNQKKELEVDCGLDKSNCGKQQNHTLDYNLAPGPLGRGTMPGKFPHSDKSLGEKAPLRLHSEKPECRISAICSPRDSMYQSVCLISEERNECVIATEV
Protocol: In order to determine the cynomologus cross-reactivity of the VHHs, a FACS binding experiment is performed. Cynomolgus DII4 expressing HEK293 cells (transient or stable transfection) are used for a titration binding experiment of the VHHs. After a 30 minutes incubation on ice, all samples are washed and detection is performed by applying anti-c-myc-Alexa647 (Santa Cruz Biotechnology, Santa Cruz, Calif., USA). Human and mouse DII4 overexpressing HEK293 cells are taken as reference. The mean MCF value is determined on the FACS Array and used for calculation of the EC₅₀ value (see FIG. 9).

[5] = molecular target: T5, recombinant human DLL4 extracellular domain, C-terminally His-tagged (R&D Systems) (human, UniProt Q9NR61 25-522, biotinylated in the competition assays (sites not given)); assay: periplasmic extract; hDLL4 ELISA
T5 construct: also called rhDLL4; hDLL4; not shown: C-terminal His tag

[6] = molecular target: T5, recombinant human DLL4 extracellular …; assay: periplasmic extract; hDLL4/hNotch1 AlphaScreen
Protocol: To this mixture, the acceptor beads and the streptavidin donor beads are added and further incubated for 1 hour at room temperature. Fluorescence is measured by reading plates on the Envision Multilabel Plate reader (Perkin Elmer, Waltham, Mass., USA) using an excitation wavelength of 680 nm and an emission wavelength of 520 nm.

[7] = molecular target: T5, recombinant human DLL4 extracellular …; assay: periplasmic extract; Biacore off-rate
[8] = molecular target: T6, mouse DLL4, full length, overexpressed on CHO or HEK293 cells (mouse, UniProt Q9JI71 27-686); assay: FMAT competition: labelled hNotch1-Fc on CHO-mDLL4 cells
T6 construct: whole, on cells; also called CHO-mDLL4; CHO-mDII4
Text: (§1) All calculations are based on the FL1_total signal which comprises the average of the fluorescence per well times the number of counts per well.

[9] = molecular target: T6, mouse DLL4, full length, overexpressed …; assay: periplasmic extract; FMAT, Notch1/Fc on CHO-mDLL4
Text: as §1
Target sequence in this assay (Q9JI71 27-686): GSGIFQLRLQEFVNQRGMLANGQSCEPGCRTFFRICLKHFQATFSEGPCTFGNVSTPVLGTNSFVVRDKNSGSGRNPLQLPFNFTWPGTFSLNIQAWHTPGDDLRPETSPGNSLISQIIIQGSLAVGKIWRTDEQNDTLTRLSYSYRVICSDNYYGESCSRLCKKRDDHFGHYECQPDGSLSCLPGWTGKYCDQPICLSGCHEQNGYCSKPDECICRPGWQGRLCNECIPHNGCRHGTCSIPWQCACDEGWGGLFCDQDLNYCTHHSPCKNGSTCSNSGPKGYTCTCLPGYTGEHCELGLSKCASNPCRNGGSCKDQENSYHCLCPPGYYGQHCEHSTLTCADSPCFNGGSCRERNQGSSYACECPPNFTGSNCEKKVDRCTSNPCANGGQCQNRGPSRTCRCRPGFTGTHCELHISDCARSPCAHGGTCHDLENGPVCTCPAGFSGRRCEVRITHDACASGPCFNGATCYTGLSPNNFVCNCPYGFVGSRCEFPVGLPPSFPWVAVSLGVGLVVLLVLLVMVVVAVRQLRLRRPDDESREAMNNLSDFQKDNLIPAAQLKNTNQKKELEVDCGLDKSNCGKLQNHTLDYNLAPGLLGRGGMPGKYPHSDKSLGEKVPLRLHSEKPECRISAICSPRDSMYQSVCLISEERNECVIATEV

[10] = molecular target: T7, human DLL4, full length, overexpressed on CHO or HEK293 cells (human, UniProt Q9NR61 27-685); assay: cell-based or functional assay
[11] = molecular target: T5, recombinant human DLL4 extracellular …; assay: cell-based or functional assay
[12] = molecular target: T7, human DLL4, full length, overexpressed …; assay: periplasmic extract; FMAT, Notch1/Fc on CHO-hDLL4
Text: as §1

human Ang2 [13] = molecular target: T8, human Ang2 (human, UniProt O15123 19-496, limits assumed); assay: competition ELISA hAng2/hTie2-Fc
T8 construct: also called hAng2; human Angiopoietin2
T8 sequence (looked up): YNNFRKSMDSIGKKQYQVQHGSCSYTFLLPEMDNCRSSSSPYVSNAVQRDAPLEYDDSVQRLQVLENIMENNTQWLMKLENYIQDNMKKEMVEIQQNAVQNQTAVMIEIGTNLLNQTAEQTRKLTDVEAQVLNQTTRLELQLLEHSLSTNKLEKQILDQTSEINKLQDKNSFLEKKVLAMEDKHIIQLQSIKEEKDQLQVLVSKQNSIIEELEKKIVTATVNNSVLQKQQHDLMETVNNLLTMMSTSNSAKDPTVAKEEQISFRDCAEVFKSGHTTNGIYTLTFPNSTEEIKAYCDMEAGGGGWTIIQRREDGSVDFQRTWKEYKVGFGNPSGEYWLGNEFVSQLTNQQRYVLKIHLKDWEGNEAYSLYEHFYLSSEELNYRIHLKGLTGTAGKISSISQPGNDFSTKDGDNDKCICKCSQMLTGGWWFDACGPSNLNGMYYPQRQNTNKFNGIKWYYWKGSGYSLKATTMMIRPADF
Protocol: (§2) This assay is also performed after incubation of the VHH with 0.5 μM human serum albumin.

human Ang2 [14] = molecular target: T8, human Ang2; assay: competition ELISA hAng2/hTie2-Fc, with 0.5 uM HSA [continued]
Protocol: as §2

T1 sequence (Q9JI71 27-525 limits assumed): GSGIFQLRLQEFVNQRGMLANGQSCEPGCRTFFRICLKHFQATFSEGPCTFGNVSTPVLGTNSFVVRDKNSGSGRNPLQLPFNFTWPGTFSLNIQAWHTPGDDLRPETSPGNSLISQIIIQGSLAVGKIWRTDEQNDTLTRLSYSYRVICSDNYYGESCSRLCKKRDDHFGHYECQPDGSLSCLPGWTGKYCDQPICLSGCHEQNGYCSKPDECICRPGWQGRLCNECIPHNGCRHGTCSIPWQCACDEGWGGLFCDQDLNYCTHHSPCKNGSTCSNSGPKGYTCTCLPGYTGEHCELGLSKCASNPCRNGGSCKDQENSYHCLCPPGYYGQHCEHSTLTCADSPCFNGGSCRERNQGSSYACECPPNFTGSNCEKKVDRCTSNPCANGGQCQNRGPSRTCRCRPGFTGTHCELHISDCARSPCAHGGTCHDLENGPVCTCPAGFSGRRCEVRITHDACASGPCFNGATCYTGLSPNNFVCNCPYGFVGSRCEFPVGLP

B3: DLLBII17C01 (VHH)
VHH: EVQLVESGGGLVQAGGSLRLSCAASGFTFDDYPIGWLRQAPGKEREGVSCISSSDDSTYYADSVKGRFTISSNNAKNTVYLQMNSLKPEDTAVYYCAVRLFSGGCAVVAGTSWADFGSSGQGTQVTVSS
notes: also called DLLBII17C1; not shown: C-terminal c-myc and His6 tags
% inhibition [5]: 82%
% inhibition [6]: 84%
koff [7]: 0.00056 s⁻¹

B6: 00045 (VHH)
VHH: EVQLVESGGGLVQPGGSLRLSCAASGFALDYYAIGWFRQAPGKEREGVSCISSSDGITYYADSVKGRFTISRDNSKNTVYLQMNSLRPEDTAVYYCATDSGGYIDYDCMGLGYDYWGQGTLVTVSS
IC50 (read off the curve) (human Ang2 [13]): ~0.1 nM

B7: 00042 (VHH)
VHH: EVQLVESGGGLVQPGGSLRLSCAASGFTLDDYAIGWFRQAPGKEREGVSSIRDNDGSTYYADSVKGRFTISSDNSKNTVYLQMNSLRPEDTAVYYCAAVPAGRLRFGEQWYPLYEYDAWGQGTLVTVSS
IC50 (read off the curve) (human Ang2 [13]): ~0.6 nM
IC50 (read off the curve) (human Ang2 [14]): ~0.6 nM

B8: DLLBII19D10 (VHH)
VHH: EVQLVESGGGLVQAGDSLRLSCAASGRTVGSYDMSWVRQGPGKEREWVSSINSGVGKTYYADSVKGRFTIFRDNAKNMVYLQMNNLKPEDTAVYYCATEMDGSRYVEGQGTQVTVSS
notes: not shown: C-terminal c-myc and His6 tags
% inhibition [5]: 98%
% inhibition [6]: 85%
koff [7]: 0.0013 s⁻¹

B9: DLLBII17G10 (VHH)
VHH: EVQLVESGGGLVQAGGSLRLSCAASGSTFSSYAMGWYRHQAPGKQRELVAAISSDGSTHYADSVKGRFTISRDNAKNTMYLQMNSLKPEDTAVYYCNTKTFGSNWYDDYWGQGTQVTVSS
notes: as for B8
% inhibition [5]: 93%
% inhibition [6]: 82%
koff [7]: 0.0015 s⁻¹

Results, then the binder that gave them:

EC50 (read off the curve) [1]: ~0.5 nM
binding result [2]: no binding
binding result [3]: no binding
B1: DLLBII133G05 (VHH)
VHH: EVQLVESGGGLVQPGGSLRLSCAASGFTFGSYDMSWVRRSPGKGPEWVSAINSGGGSTYYTDYVKGRFTISRDNAKNTLYLQMNSLKPEDTAVYYCAADRYIWARQGEYWGAYAYDYWGQGTQVTVSS
notes: as for B8

binding result [4]: binds
B2: DLLBII55D12 (VHH)
VHH: EVQLVESGGGLVQPGGSLRLSCAASGFTFDDYAIGWFRQAPGKEPEGISCISSSGGITYYADSVKGRFTISRDNAKNTVYLQMNSLKPEDTAVYYCATPGIAACRGIHYTGQGTQVTVSS
notes: as for B8

binding result [8]: binds
B4: 78B04 (VHH)
VHH: EVQLVESGGGLVQAGGSLRLSCAASGRTFSNYIMGWFRQAPGKEREFVAGISRYGDYTYYADSVKGRFTISRDNVKNTVYLRMNSLKPDDTAVYYCAANEGYCSGYGCYEDSGQYDYWGQGTQVTVSS
notes: also called DLLBII78B04

% inhibition [9]: 92%
IC50, DLL4/Notch1 reporter assay (luciferase; co-culture with HEK293-hDII4) [10]: 2760 nM
EC50 (read off the curve) [4]: ~8 nM
concentration giving complete inhibition, HUVEC proliferation assay [11]: 10 µM
% inhibition [12]: 91%
B5: DLLBII101G08 (VHH)
VHH: EVQLVESGGGLVQAGGSLRLSCAASGRTFSSYAMAWFRQAPGKEREFVAAIRWSGGTAYYADSVQGRFTISRDNAKNTVYLQMNSLKPEDTAVYYCANRAADTRLGPYEYDYWGQGTQVTVSS
notes: also called 101G8; DLLBII101G8; not shown: C-terminal c-myc and His6 tags

Source: US20130078247A1 (Boehringer Ingelheim, published 2013)
